Source: paper PMC6076278

Assays:
[1] = molecular target: Glutamine synthetase from Helicobacter pylori (Helicobacter pylori) (UniProt P94845); assay: crystal structure; Hpy GS mixed with 5 mM ATP, 5 mM PPT, 5 mM magnesium chloride; crystals in 2.0 M sodium formate, 100 mM sodium citrate pH 5.0; 2.9 Å; twelve subunits in the asymmetric unit
[2] = molecular target: Glutamine synthetase from Helicobacter pylori (Helicobacter pylori) (UniProt P94845); assay: crystal structure; apo Hpy GS; crystals in 10% (v/v) PEG 6,000, 100 mM HEPES pH 7.0, 50 mM choline; 2.8 Å; hexamer in the asymmetric unit, dodecamer generated by two-fold symmetry

Glutamine synthetase from Helicobacter pylori (from UniProt P94845 1-481) (enzyme)
stoichiometry N [1]: 12
stoichiometry N [2]: 12
